Results taken from PMC3285272 (Cell, 2012).

What was measured:
[1] = target: T1, full-length γζ-COP dimer (B. taurus, UniProt P53620 1-874; P35604 1-177); test: pull-down
T1 sequence (looked up) 1: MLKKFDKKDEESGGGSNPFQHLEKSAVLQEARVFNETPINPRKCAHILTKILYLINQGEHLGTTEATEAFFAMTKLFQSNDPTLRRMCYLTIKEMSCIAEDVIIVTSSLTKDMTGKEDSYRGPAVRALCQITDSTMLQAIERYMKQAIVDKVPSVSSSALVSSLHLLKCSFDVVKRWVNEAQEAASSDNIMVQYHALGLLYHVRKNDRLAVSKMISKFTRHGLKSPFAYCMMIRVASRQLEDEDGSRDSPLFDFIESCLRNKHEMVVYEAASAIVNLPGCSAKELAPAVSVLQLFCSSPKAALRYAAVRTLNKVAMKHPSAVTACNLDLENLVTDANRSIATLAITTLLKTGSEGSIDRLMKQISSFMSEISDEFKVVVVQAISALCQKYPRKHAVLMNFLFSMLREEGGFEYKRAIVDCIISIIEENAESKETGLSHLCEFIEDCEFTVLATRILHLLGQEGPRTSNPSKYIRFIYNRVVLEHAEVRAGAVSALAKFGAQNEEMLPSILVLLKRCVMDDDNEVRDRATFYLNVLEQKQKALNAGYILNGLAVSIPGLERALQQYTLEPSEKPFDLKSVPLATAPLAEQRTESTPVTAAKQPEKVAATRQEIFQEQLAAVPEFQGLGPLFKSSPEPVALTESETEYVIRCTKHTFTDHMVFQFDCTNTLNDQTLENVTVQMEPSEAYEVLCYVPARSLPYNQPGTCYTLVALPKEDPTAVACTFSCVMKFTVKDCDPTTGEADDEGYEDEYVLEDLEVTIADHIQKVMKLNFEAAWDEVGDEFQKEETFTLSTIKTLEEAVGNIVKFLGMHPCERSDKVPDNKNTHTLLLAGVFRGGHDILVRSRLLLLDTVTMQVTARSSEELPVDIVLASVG
T1 sequence (looked up) 2: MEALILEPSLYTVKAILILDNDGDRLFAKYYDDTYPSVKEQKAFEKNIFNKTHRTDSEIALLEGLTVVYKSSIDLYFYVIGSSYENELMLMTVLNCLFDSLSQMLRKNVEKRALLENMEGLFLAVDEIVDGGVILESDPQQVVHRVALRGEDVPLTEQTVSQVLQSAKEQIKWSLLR

[2] = target: T2, γζ-COP core complex (bovine γ-COP 1–355 plus ζ-COP 1–153) (B. taurus, UniProt P53620 1-355; P35604 1-153); test: pull-down
T2 sequence (looked up) 1: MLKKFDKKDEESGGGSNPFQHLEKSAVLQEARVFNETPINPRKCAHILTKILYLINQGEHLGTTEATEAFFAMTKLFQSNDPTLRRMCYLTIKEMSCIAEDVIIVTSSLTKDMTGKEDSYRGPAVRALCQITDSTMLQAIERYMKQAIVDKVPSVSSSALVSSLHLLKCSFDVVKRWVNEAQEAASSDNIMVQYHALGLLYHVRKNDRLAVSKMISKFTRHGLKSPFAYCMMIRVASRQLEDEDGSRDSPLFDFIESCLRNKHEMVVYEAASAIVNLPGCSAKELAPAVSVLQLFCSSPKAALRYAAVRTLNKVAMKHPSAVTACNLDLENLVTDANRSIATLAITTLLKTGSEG
T2 sequence (looked up) 2: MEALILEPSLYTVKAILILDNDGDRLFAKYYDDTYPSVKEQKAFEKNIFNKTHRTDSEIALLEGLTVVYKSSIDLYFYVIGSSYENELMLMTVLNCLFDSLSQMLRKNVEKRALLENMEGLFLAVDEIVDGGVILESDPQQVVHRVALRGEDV

B1: S. cerevisiae Arf1 (residues 18–181) with a C-terminal GST tag (domain or fragment, UniProt P11076 18-181, looked up)
chain: MRILMVGLDGAGKTTVLYKLKLGEVITTIPTIGFNVETVQYKNISFTVWDVGGQDRIRSLWRHYYRNTEGVIFVVDSNDRSRIGEAREVMQRMLNEDELRNAAWLVFANKQDLPEAMSAAEITEKLGLHSIRNRPWFIQATCATSGEGLYEGLEWLSNSLKNST
binding result [1]: binds | binding result [2]: binds
